Source: paper PMC3925836 (Advanced healthcare materials, 2013)
Residue numbers refer to the chain shown, from its start.

B1: fibrinogen, P02671 36-866; P02675 45-491; P02679 27-453 (complex)
chain 1: ADSGEGDFLAEGGGVRGPRVVERHQSACKDSDWPFCSDEDWNYKCPSGCRMKGLIDEVNQDFTNRINKLKNSLFEYQKNNKDSHSLTTNIMEILRGDFSSANNRDNTYNRVSEDLRSRIEVLKRKVIEKVQHIQLLQKNVRAQLVDMKRLEVDIDIKIRSCRGSCSRALAREVDLKDYEDQQKQLEQVIAKDLLPSRDRQHLPLIKMKPVPDLVPGNFKSQLQKVPPEWKALTDMPQMRMELERPGGNEITRGGSTSYGTGSETESPRNPSSAGSWNSGSSGPGSTGNRNPGSSGTGGTATWKPGSSGPGSTGSWNSGSSGTGSTGNQNPGSPRPGSTGTWNPGSSERGSAGHWTSESSVSGSTGQWHSESGSFRPDSPGSGNARPNNPDWGTFEEVSGNVSPGTRREYHTEKLVTSKGDKELRTGKEKVTSGSTTTTRRSCSKTVTKTVIGPDGHKEVTKEVVTSEDGSDCPEAMDLGTLSGIGTLDGFRHRHPDEAAFFDTASTGKTFPGFFSPMLGEFVSETESRGSESGIFTNTKESSSHHPGIAEFPSRGKSSSYSKQFTSSTSYNRGDSTFESKSYKMADEAGSEADHEGTHSTKRGHAKSRPV
chain 2: QGVNDNEEGFFSARGHRPLDKKREEAPSLRPAPPPISGGGYRARPAKAAATQKKVERKAPDAGGCLHADPDLGVLCPTGCQLQEALLQQERPIRNSVDELNNNVEAVSQTSSSSFQYMYLLKDLWQKRQKQVKDNENVVNEYSSELEKHQLYIDETVNSNIPTNLRVLRSILENLRSKIQKLESDVSAQMEYCRTPCTVSCNIPVVSGKECEEIIRKGGETSEMYLIQPDSSVKPYRVYCDMNTENGGWTVIQNRQDGSVDFGRKWDPYKQGFGNVATNTDGKNYCGLPGEYWLGNDKISQLTRMGPTELLIEMEDWKGDKVKAHYGGFTVQNEANKYQISVNKYRGTAGNALMDGASQLMGENRTMTIHNGMFFSTYDRDNDGWLTSDPRKQCSKEDGGGWWYNRCHAANPNGRYYWGGQYTWDMAKHGTDDGVVWMNWKGSWYSMRKMSMKIRPFFPQQ
chain 3: YVATRDNCCILDERFGSYCPTTCGIADFLSTYQTKVDKDLQSLEDILHQVENKTSEVKQLIKAIQLTYNPDESSKPNMIDAATLKSRKMLEEIMKYEASILTHDSSIRYLQEIYNSNNQKIVNLKEKVAQLEAQCQEPCKDTVQIHDITGKDCQDIANKGAKQSGLYFIKPLKANQQFLVYCEIDGSGNGWTVFQKRLDGSVDFKKNWIQYKEGFGHLSPTGTTEFWLGNEKIHLISTQSAIPYALRVELEDWNGRTSTADYAMFKVGPEADKYRLTYAYFAGGDAGDAFDGFDFGDDPSDKFFTSHNGMQFSTWDNDNDKFEGNCAEQDGSGWWMNKCHAGHLNGVYYQGGTYSKASTPNGYDNGIIWATWKTRWYSMKKTTMKIIPFNRLTIGEGQQHHLGGAKQAGDV
modifications: not checked
B2: GPRP-P40-I60 (designed binder)
chain: GPRPFPAAGPGVGGSVPGPGVPGPGVPGPGVPGPGVPGVGGSVPGPGVPGPGVPGPGVPGPGVPGVGGSVPGPGVPGPGVPGPGVPGPGVPGVGGSVPGPGVPGPGVPGPGVPGPGVPGVGGSVPGPGVPGPGVPGPGVPGPGVPGVGGSVPGPGVPGPGVPGPGVPGPGVPGVGGSVPGPGVPGPGVPGPGVPGPGVPGVGGSVPGPGVPGPGVPGPGVPGPGVPGVGVPGIGVPGIGVPGIGVPGIGVPGVGVPGIGVPGIGVPGIGVPGIGVPGVGVPGIGVPGIGVPGIGVPGIGVPGVGVPGIGVPGIGVPGIGVPGIGVPGVGVPGIGVPGIGVPGIGVPGIGVPGVGVPGIGVPGIGVPGIGVPGIGVPGVGVPGIGVPGIGVPGIGVPGIGVPGVGVPGIGVPGIGVPGIGVPGIGVPGVGVPGIGVPGIGVPGIGVPGIGVPGVGVPGIGVPGIGVPGIGVPGIGVPGVGVPGIGVPGIGVPGIGVPGIGVPGVGVPGIGVPGIGVPGIGVPGIGVPGWP
B3: GPRP-A80-I60 (designed binder)
chain: GPRPFPAAGPGVGVPGAGVPGAGVPGAGVPGAGVPGVGVPGAGVPGAGVPGAGVPGAGVPGVGVPGAGVPGAGVPGAGVPGAGVPGVGVPGAGVPGAGVPGAGVPGAGVPGVGVPGAGVPGAGVPGAGVPGAGVPGVGVPGAGVPGAGVPGAGVPGAGVPGVGVPGAGVPGAGVPGAGVPGAGVPGVGVPGAGVPGAGVPGAGVPGAGVPGVGVPGAGVPGAGVPGAGVPGAGVPGVGVPGAGVPGAGVPGAGVPGAGVPGVGVPGAGVPGAGVPGAGVPGAGVPGVGVPGAGVPGAGVPGAGVPGAGVPGVGVPGAGVPGAGVPGAGVPGAGVPGVGVPGAGVPGAGVPGAGVPGAGVPGVGVPGAGVPGAGVPGAGVPGAGVPGVGVPGAGVPGAGVPGAGVPGAGVPGVGVPGIGVPGIGVPGIGVPGIGVPGVGVPGIGVPGIGVPGIGVPGIGVPGVGVPGIGVPGIGVPGIGVPGIGVPGVGVPGIGVPGIGVPGIGVPGIGVPGVGVPGIGVPGIGVPGIGVPGIGVPGVGVPGIGVPGIGVPGIGVPGIGVPGVGVPGIGVPGIGVPGIGVPGIGVPGVGVPGIGVPGIGVPGIGVPGIGVPGVGVPGIGVPGIGVPGIGVPGIGVPGVGVPGIGVPGIGVPGIGVPGIGVPGVGVPGIGVPGIGVPGIGVPGIGVPGVGVPGIGVPGIGVPGIGVPGIGVPGWP
B4: GPSP-A80-I60 (designed binder)
chain: B3 chain with R3S

Assays:
GPRP-A80-I60-C = target: T1, GPRP-A80-I60-C; experiment: ELISA
T1 chain: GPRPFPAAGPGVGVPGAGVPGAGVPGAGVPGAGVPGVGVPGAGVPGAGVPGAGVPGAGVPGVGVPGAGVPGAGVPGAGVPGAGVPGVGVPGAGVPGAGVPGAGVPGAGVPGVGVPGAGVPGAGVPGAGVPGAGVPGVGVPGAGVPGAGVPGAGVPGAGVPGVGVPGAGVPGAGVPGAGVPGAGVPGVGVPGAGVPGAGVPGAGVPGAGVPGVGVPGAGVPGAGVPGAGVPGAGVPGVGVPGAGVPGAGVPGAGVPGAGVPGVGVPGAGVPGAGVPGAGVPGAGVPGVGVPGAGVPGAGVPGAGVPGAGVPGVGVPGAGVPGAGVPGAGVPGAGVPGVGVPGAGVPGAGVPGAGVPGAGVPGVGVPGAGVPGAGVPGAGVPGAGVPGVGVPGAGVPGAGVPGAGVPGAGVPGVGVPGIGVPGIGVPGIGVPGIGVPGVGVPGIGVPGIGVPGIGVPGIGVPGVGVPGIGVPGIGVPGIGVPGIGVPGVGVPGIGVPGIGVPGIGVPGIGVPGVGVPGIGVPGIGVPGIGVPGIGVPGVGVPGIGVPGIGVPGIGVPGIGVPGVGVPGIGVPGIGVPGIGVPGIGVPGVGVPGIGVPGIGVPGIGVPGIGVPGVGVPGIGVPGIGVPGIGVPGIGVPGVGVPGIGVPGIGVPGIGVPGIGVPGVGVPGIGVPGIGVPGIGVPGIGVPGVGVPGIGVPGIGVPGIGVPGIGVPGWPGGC

GPRP-P40-I60-C = target: T2, GPRP-P40-I60-C; experiment: ELISA
T2 chain: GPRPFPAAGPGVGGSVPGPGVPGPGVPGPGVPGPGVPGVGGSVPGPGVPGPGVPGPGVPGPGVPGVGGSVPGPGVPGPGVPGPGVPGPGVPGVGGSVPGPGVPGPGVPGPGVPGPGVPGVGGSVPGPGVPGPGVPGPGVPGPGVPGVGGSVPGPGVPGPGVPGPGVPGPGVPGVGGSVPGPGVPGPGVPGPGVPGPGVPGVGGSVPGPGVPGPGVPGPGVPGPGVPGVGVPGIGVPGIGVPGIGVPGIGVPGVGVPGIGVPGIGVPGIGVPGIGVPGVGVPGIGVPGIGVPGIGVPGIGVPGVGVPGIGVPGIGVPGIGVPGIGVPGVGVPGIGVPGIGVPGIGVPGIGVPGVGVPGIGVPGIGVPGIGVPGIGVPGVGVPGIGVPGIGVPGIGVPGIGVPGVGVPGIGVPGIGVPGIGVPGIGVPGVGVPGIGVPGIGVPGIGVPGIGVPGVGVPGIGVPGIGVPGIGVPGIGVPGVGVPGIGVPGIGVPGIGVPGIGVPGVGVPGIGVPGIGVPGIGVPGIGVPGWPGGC

dynamic light scattering = target: the molecule itself; experiment: dynamic light scattering
GPSP-P40-I60 = target: T3, GPSP-P40-I60; experiment: SYPRO Orange thermal transition assay
T3 chain: B2 chain with R3S

Binder	% normalized signal (GPRPFPAC-coated wells = 100 %), saturated wells (GPRP-A80-I60-C) [%]	% normalized signal (GPRPFPAC-coated wells = 100 %), saturated wells (GPRP-P40-I60-C) [%]	binding result (dynamic light scattering)	binding result (GPSP-P40-I60)
B1	> 100	> 100		
B2			binds	
B3				binds
B4			binds	binds
